Laboratory results taken from patent US20250195614A1 (IMMUNITYBIO, published 2025).

Key:
[1] = molecular target: IL2Rβ and common γ chain on 32Dβ cells; assay: cell-based or functional assay
TGF-β1 = TGF-β1 (UniProt P01137 279-390); assay: cell-based or functional assay
TGF-β1, sequence (P01137 279-390 limits assumed): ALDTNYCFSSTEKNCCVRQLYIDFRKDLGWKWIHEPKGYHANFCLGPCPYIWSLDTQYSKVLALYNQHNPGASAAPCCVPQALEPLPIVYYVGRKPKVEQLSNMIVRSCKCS

Row | Molecule | EC50 (printed as IC50), IL-15 activity on IL-15 dependent 32Dβ cells (WST-1, OD450) [1] | EC50, 32Dβ cell proliferation (WST1, absorbance 450 nM) [1] | IC50, TGF-β1 blocking activity in HEK-Blue TGF-β cells (OD620) (TGF-β1) | IC50, inhibition of TGFβ1 (0.1 nM) activity in HEK-Blue TGFβ cells (QUANTI-Blue OD 620-655 nM) (TGF-β1) | TGF-β1 blocking activity against that of TGFRt15-TGFRs or TGFRt15*-TGFRs (HEK-Blue TGF-β cells) (TGF-β1)
1 | recombinant IL-15 (from UniProt P40933 49-162) (ligand) | 0.0818 nM | 0.0106 nM |  |  | 
2 | commercial TGF-β1 receptor II-Fc fusion (TGFRII/Fc, R&D Systems) (Fc fusion, UniProt P37173 24-159, looked up, not shown: a dimerising Fc or GST) IPPHVQKSVNNDMIVTDNNGAVKFPQLCKFCDVRFSTCDNQKSCMSNCSITSICEKPQEVCVAVWRKNDENITLETVCHDPKLPYHDFILEDAASPKCIMKEKKKPGETFFMCSCSSDECNDNIIFSEEYNTSNPD |  |  | 0.47 nM | 0.461 nM | ~10 fold
